This experiment has as its target T1, BSA conjugated CD28 stalk region dimeric peptide (also: dimer, conjugated to BSA via C-terminal Lys).
T1 peptide: GKHLCPSPLFPGPSKPK
Put plainly: ELISA.

From patent US20230144459A1 (published 2023) come the findings set out here.

One may read the IC50 as the concentration that gives 50% inhibition. A high value points to weaker potency.

Where no end group is shown, it is not given here.

B1: antibody M9 (antibody, V domains shown)
VH: DVKLVESGGGLVKLGGSLKLSCVASGFTFSSYYMSWVRQTPEKRLEWVATISDGGDNTYYAGTVTGRFTISRDFAKNTLYLQMNSLTSEDTAVYYCARIHWPYYFDSWGQGTTLTVSS
VL: QFVLSQSPAILSASPGEMLTMTCRASSSVSYMNWYQQKPGSSPKPWIYATSDLASGVPARFSGSGSGTSYSLTISRVEAEDAATYYCQQWSSHPPTFGGGTKLEIR
With B1, the half-maximal inhibitory concentration (IC50) worked out at 9 ng/mL.
